Measured values as given in paper PMC4121237, “Engineering Neprilysin Activity and Specificity to Create a Novel Therapeutic for Alzheimer’s Disease” (PLoS ONE, 2014).

Experiments:
Aβ1–42 = target: T1, Aβ1–42 (Homo sapiens, UniProt P05067); assay: Endpoint degradation assay with ELISA read-out; assay type: biochemical; details: 1 hour at room temperature; Aβ42 ELISA
T1 construct: Aβ 1-42^a
Protocol: (§1) Supplementary file pone.0104001.s001.tif: Figure S1 Degradation of Aβ1–40 and Aβ1–42 by NEP wild-type and NEPv. Measurement of the degredation of Aβ1–40 (A) and Aβ1–42 (B) was performed by incubating peptide and either wild-type NEP (▪) or NEPv (Δ) for 1 hour at room temperature. The reaction was stopped by the addition of 1.10-phenanthroline to a final concentration of 10 µM. 50 µl (Aβ40 analysis) or 100 µl (Aβ42 analysis) of the reaction mix was transferred to an ELISA plate. Aβ40 and Aβ42 concentrations after degradation were determined using Invitrogen human Aβ40 ELISA kit (Invitrogen, California, US), and Innotest β-amyloid RUO (1–42) ELISA (Innogenetics, Gent, Belgium). […] (TIF) Click here for additional data file.

Aβ1–40 = assay: Endpoint degradation assay with ELISA read-out; assay type: biochemical, human; details: 1 hour at room temperature; Aβ40 ELISA
Protocol: as §1

Nociceptin = assay: Steady-state kinetics of peptide cleavage, fluorescence polarisation; assay type: biochemical; details: substrate Nociceptin
Protocol: (§2) For detailed kinetic characterisation of peptide cleavage by NEP, a similar assay to that above was used with modifications based on a published method. Peptides were synthesised by Bachem using 9-fluorenylmethyloxycarbonyl solid-phase peptide synthesis and were labelled with a N-terminal 5(6)FAM via a ε-aminocaproic acid linker and a C-terminal biotin via a lysine linker (Table S1). Purified peptides were supplied as trifluoroacetate salts with a purity ≥95%. The assay was performed in a 96-well microtitre plate and contained 50 mM HEPES (pH 7.4), 100 mM NaCl, 0.05% (w/v) BSA (Buffer A), 1–200 µM peptide substrate and 1–500 nM NEP protein. Reactions were incubated at 37°C before being stopped at various time points between 2 and 360 min by transferring 5 µL aliquots to 245 µL Buffer A containing 2 mM 1,10-phenanethroline (Sigma) and 2 µM avidin (Invitrogen). For peptide substrates containing disulphide bonds, 1 mM tris(2-carboxyethyl)phosphine (Thermo Scientific) was added to the stop solution. The fluorescence polarisation of the resulting solution was measured on a Victor plate reader and the amount of substrate cleaved was determined with reference to substrate-only controls with and without avidin. Initial rates were obtained by linear regression of the linear regions of time courses. Enzyme velocity was plotted as a function of substrate concentration and the Michaelis-Menten equation was used to fit the data, giving the parameters kcat and KM.

Arg-vasopressin = assay: as above; assay type: biochemical; details: substrate Arg-vasopressin
Protocol: as §2

Neurotensin = assay: as above; assay type: biochemical
Protocol: as §2

Bradykinin = assay: as above; assay type: biochemical
Protocol: as §2

GRP = assay: as above; assay type: biochemical; details: substrate GRP
Protocol: as §2

Neurokinin B = assay: as above; assay type: biochemical; details: substrate Neurokinin B
Protocol: as §2

Glucagon = assay: as above; assay type: biochemical; details: substrate Glucagon
Protocol: as §2

γ-endorphin = assay: as above; assay type: biochemical; details: substrate γ-endorphin
Protocol: as §2

ANP = assay: as above; assay type: biochemical; details: substrate ANP
Protocol: as §2

Somatostatin 28 = assay: as above; assay type: biochemical; details: substrate Somatostatin 28
Protocol: as §2

Angiotensin = assay: as above; assay type: biochemical
Protocol: as §2

[1] = tested on: panel of off-target peptides; assay: Steady-state kinetics across the panel of off-target peptides; assay type: biochemical
Protocol: For detailed kinetic characterisation of peptide cleavage by NEP, a similar assay to that above was used with modifications based on a published method. Peptides were synthesised by Bachem using 9-fluorenylmethyloxycarbonyl solid-phase peptide synthesis and were labelled with a N-terminal 5(6)FAM via a ε-aminocaproic acid linker and a C-terminal biotin via a lysine linker (Table S1). Purified peptides were supplied as trifluoroacetate salts with a purity ≥95%. The assay was performed in a 96-well microtitre plate and contained 50 mM HEPES (pH 7.4), 100 mM NaCl, 0.05% (w/v) BSA (Buffer A), 1–200 µM peptide substrate and 1–500 nM NEP protein. […] The fluorescence polarisation of the resulting solution was measured on a Victor plate reader and the amount of substrate cleaved was determined with reference to substrate-only controls with and without avidin. […]
Kinetic parameters for cleavage of endothelin-1 by NEP were determined using a stopped assay in which the amount of substrate cleaved was measured using reversed-phase HPLC (RP-HPLC). […] RP-HPLC spectra were recorded using an Agilent 1260 Infinity system. […] Signal intensity for intact endothelin-1 was monitored at 210 nm and relative peak area was determined by manual integration of the baseline. […]
Kinetic parameters for cleavage of a panel of peptides by wild-type NEP and NEPv were determined (Figure 3 and Table 2). […]

Endothelin-1 = assay: Steady-state kinetics of endothelin-1 cleavage, stopped assay with RP-HPLC; assay type: biochemical
Protocol: Kinetic parameters for cleavage of endothelin-1 by NEP were determined using a stopped assay in which the amount of substrate cleaved was measured using reversed-phase HPLC (RP-HPLC). Endothelin-1 was incubated at 12.5–200 µM in the presence of wild type NEP or NEPv and reactions were stopped after 10 min at 37°C by the addition of an equal volume of 1∶1∶1 water:acetonitrile:TFA containing 2 mM tris(2-carboxyethyl)phosphine (Thermo Scientific). RP-HPLC spectra were recorded using an Agilent 1260 Infinity system. Injections of 20 µL were made for each sample and analytes were separated by elution on an Agilent Polaris C8-A stationary phase column (4.6×100 mm, 3 µm) at 1.5 mL min^−1 using a linear binary gradient of 10–90% acetonitrile in water with 0.1% (v/v) TFA over 15 minutes at 40°C. Signal intensity for intact endothelin-1 was monitored at 210 nm and relative peak area was determined by manual integration of the baseline. Kinetic parameters were derived from the activity data as described above.

[2] = ratio of wild-type NEP kcat/KM to that of the mutant
[3] = substrate Neurotensin, 37°C, pH 7.4
[4] = substrate Bradykinin, 37°C, pH 7.4
[5] = substrate Angiotensin, 37°C, pH 7.4
[6] = substrate Endothelin-1 (unlabelled), RP-HPLC, 10 min at 37°C

T1 sequence (P05067 672-713): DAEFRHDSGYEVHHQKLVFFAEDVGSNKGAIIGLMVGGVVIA

B1: NEPv: lead variant at round 2, human NEP ectodomain with the two mutations G399V and G714K (protein, UniProt P08473 52-750, looked up, variant G399V G714K)
extracellular domain: YDDGICKSSDCIKSAARLIQNMDATTEPCTDFFKYACGGWLKRNVIPETSSRYGNFDILRDELEVVLKDVLQEPKTEDIVAVQKAKALYRSCINESAIDSRGGEPLLKLLPDIYGWPVATENWEQKYGASWTAEKAIAQLNSKYGKKVLINLFVGTDDKNSVNHVIHIDQPRLGLPSRDYYECTGIYKEACTAYVDFMISVARLIRQEERLPIDENQLALEMNKVMELEKEIANATAKPEDRNDPMLLYNKMTLAQIQNNFSLEINGKPFSWLNFTNEIMSTVNISITNEEDVVVYAPEYLTKLKPILTKYSARDLQNLMSWRFIMDLVSSLSRTYKESRNAFRKALYVTTSETATWRRCANYVNGNMENAVGRLYVEAAFAGESKHVVEDLIAQIREVFIQTLDDLTWMDAETKKRAEEKALAIKERIGYPDDIVSNDNKLNNEYLELNYKEDEYFENIIQNLKFSQSKQLKKLREKVDKDEWISGAAVVNAFYSSGRNQIVFPAGILQPPFFSAQQSNSLNYGGIGMVIGHEITHGFDDNGRNFNKDGDLVDWWTQQSASNFKEQSQCMVYQYGNFSWDLAGGQHLNGINTLGENIADNGGLGQAYRAYQNYIKKNGEEKLLPGLDLNHKQLFFLNFAQVWCGTYRPEYAVNSIKTDVHSPKNFRIIGTLQNSAEFSEAFHCRKNSYMNPEKKCRVW
modifications: extracellular domain
Q: For B1, which EC50 (Aβ1–42) is on record?
A: Its EC50 is 19.5 nM.

Q: What about the EC50 (Aβ1–40) of the same molecule?
A: Its EC50 is 21.3 nM.

Q: What about the Km (Nociceptin; 37°C, pH 7.4) of the same molecule?
A: The Km was 63 ± 7 µM.

Q: And the kcat (Nociceptin; 37°C, pH 7.4)?
A: Its kcat is 14 ± 0.9 s⁻¹.

Q: What about the “Fold change in kcat/KM” value (Nociceptin; [2]) of the same molecule?
A: Its value is 2.6.

Q: What about the Km (Arg-vasopressin; 37°C, pH 7.4) of the same molecule?
A: Its Km is 22 ± 3 µM.

Q: What about the kcat (Arg-vasopressin; 37°C, pH 7.4) of the same molecule?
A: The kcat was 0.017 ± 0.001 s⁻¹.

Q: And the “Fold change in kcat/KM” value (Arg-vasopressin; [2])?
A: Its value is 510.

Q: And the Km (Neurotensin; [3])?
A: Its Km is 16 ± 3 µM.

Q: And the kcat (Neurotensin; [3])?
A: The kcat was 0.039 ± 0.002 s⁻¹.

Q: And the “Fold change in kcat/KM” value (Neurotensin; substrate Neurotensin, ratio of wild-type NEP kcat/KM to that of the mutant)?
A: Its value is 320.

Q: What about the “reduction in kcat relative to wild-type NEP” value (Neurotensin; substrate neurotensin) of the same molecule?
A: Its value is 340 fold.

Q: And the “specificity switch in favor of cleavage of Aβ” value (Bradykinin; Aβ1–40 versus bradykinin)?
A: The value was 6.4×10^4.

Q: And the Km (Bradykinin; [4])?
A: Its Km is 37 ± 10 µM.

Q: What about the kcat (Bradykinin; [4]) of the same molecule?
A: The kcat was 0.0055 ± 0.001 s⁻¹.

Q: And the “reduction in kcat relative to wild-type NEP” value (GRP)?
A: The value was 67 fold.

Q: What about the Km (GRP; 37°C, pH 7.4) of the same molecule?
A: Its Km is 120 ± 20 µM.

Q: And the kcat (GRP; 37°C, pH 7.4)?
A: Its kcat is 0.39 ± 0.05 s⁻¹.

Q: And the “Fold change in kcat/KM” value (GRP; [2])?
A: The value was 52.

Q: And the Km (Neurokinin B; 37°C, pH 7.4)?
A: Its Km is 22 ± 3 µM.

Q: And the kcat (Neurokinin B; 37°C, pH 7.4)?
A: The kcat was 0.42 ± 0.03 s⁻¹.

Q: What about the “Fold change in kcat/KM” value (Neurokinin B; [2]) of the same molecule?
A: Its value is 48.

Q: What about the Km (Glucagon; 37°C, pH 7.4) of the same molecule?
A: The Km was 30 ± 6 µM.

Q: What about the kcat (Glucagon; 37°C, pH 7.4) of the same molecule?
A: Its kcat is 1.2 ± 0.1 s⁻¹.

Q: What about the “Fold change in kcat/KM” value (Glucagon; [2]) of the same molecule?
A: The value was 4.2.

Q: What about the Km (γ-endorphin; 37°C, pH 7.4) of the same molecule?
A: The Km was 4.4 ± 0.6 µM.

Q: And the kcat (γ-endorphin; 37°C, pH 7.4)?
A: The kcat was 0.16 ± 0.006 s⁻¹.

Q: What about the “Fold change in kcat/KM” value (γ-endorphin; [2]) of the same molecule?
A: Its value is 10.

Q: What about the Km (ANP; 37°C, pH 7.4) of the same molecule?
A: Its Km is 33 ± 6 µM.

Q: What about the kcat (ANP; 37°C, pH 7.4) of the same molecule?
A: The kcat was 0.56 ± 0.05 s⁻¹.

Q: And the “Fold change in kcat/KM” value (ANP; [2])?
A: Its value is 53.

Q: What about the Km (Somatostatin 28; 37°C, pH 7.4) of the same molecule?
A: The Km was 47 ± 20 µM.

Q: What about the kcat (Somatostatin 28; 37°C, pH 7.4) of the same molecule?
A: The kcat was 0.086 ± 0.02 s⁻¹.

Q: And the “Fold change in kcat/KM” value (Somatostatin 28; [2])?
A: The value was 87.

Q: What about the Km (Angiotensin; [5]) of the same molecule?
A: Its Km is 13 ± 2 µM.

Q: And the kcat (Angiotensin; [5])?
A: The kcat was 0.14 ± 0.007 s⁻¹.

Q: What about the “Fold change in kcat/KM” value (Angiotensin; substrate Angiotensin, ratio of wild-type NEP kcat/KM to that of the mutant) of the same molecule?
A: Its value is 87.

Q: And the “reduction in kcat relative to wild-type NEP” value (Angiotensin; substrate angiotensin)?
A: Its value is 60 fold.

Q: What about the “reduction in activity on other peptides” value ([1]; other (off-target) peptides, relative to wild-type) of the same molecule?
A: Its value is ≤ 3,200 fold.

Q: And the “average specificity switch (ratio of the fold change in kcat/KM on Aβ1–40 to that on other peptides)” value ([1]; panel of 16 peptides)?
A: Its value is 5,300 fold.

Q: What about the Km (Endothelin-1; [6]) of the same molecule?
A: The Km was 57 ± 20 µM.

Q: What about the kcat (Endothelin-1; [6]) of the same molecule?
A: Its kcat is 0.059 ± 0.008 s⁻¹.

Q: And the “Fold change in kcat/KM” value (Endothelin-1; substrate Endothelin-1, ratio of wild-type NEP kcat/KM to that of the mutant)?
A: The value was 13.
